The source of these data is patent US20250074980A1 (BRIGHAM AND WOMEN S HOSPITAL, published 2025).

One experiment deals with T1, GST-CEACAM1 (human, UniProt P13688 35-141, limits assumed).
T1 construct: also called human CEACAM1-GST protein
T1 sequence: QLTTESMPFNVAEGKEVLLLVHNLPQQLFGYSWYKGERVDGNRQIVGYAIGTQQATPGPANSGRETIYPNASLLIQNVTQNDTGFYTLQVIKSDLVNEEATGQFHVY
Briefly: competition ELISA: binding of human CEACAM1-GST (37.5 µg/ml) to human CEACAM1 IgV domain tagless protein (1 µg/ml), anti-GST detection, OD 450 nm. As to the method: The ability of the CEACAM1 antibodies to block CEACAM1 homodimerization was tested. […] In addition, IgG4 antibody was used as a control (0-1000 nM). Goat polyclonal anti-GST-HSP antibody from Abcam (1:2000) was used and assays were developed by addition of TMB solution (Life technologies). OD values were read at 450 nm on a plate reader. Data was plotted in a Graphpad and best-fit IC-50 values were determined.
In general terms: An ELISA detects its analyte on a solid surface through an enzyme-linked reagent.

Experiment [1] deals with T2, CEACAM3 on transfected HeLa cells (human, UniProt P40198 35-252).
T2 construct: whole, on cells; also called HeLa-CEACAM3; HeLa C3
T2 sequence (looked up): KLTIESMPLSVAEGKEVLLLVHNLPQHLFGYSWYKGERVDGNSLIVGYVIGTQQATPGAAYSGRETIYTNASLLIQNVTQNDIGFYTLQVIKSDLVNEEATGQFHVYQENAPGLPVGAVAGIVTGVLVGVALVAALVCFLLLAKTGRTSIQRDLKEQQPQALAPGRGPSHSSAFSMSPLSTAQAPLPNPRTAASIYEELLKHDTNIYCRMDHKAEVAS
Briefly: flow cytometry, transfected HeLa. A digest of the protocol:
(§1)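 Binding selectivity was assessed by flow cytometry and is expressed as the staining of each HeLa transfectant, each stably carrying a single CEACAM family member. The cells were kept at 37° C, 5.0% CO₂ in DMEM containing 10% fetal bovine serum. Staining used the test antibody followed by a fluorochrome-conjugated isotype-specific secondary antibody, and DAPI marked viability.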
On the technique in general: A flow cytometer gives signals particle by particle.

Experiment [2] concerns the target T3, CEACAM8 on transfected HeLa cells (human, UniProt P31997 35-320).
T3 construct: whole, on cells; also called HeLa-CEACAM8; HeLa C8
T3 sequence (looked up): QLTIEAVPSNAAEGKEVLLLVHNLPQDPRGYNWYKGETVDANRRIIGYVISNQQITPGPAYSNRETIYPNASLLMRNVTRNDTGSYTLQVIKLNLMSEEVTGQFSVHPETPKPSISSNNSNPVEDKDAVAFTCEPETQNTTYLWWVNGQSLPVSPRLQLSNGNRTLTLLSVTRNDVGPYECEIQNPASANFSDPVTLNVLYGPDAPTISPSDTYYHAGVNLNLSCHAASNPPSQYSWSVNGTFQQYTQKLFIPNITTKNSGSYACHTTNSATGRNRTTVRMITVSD
Briefly: flow cytometry, transfected HeLa. The method in brief:
as §1

The target in experiment [3] is T4, His-tagged CEACAM1 (human, UniProt P13688 35-428).
T4 construct: 45 kDa SPR analyte; also called CEACAM1-HIS; CEACAM1 analyte
T4 sequence: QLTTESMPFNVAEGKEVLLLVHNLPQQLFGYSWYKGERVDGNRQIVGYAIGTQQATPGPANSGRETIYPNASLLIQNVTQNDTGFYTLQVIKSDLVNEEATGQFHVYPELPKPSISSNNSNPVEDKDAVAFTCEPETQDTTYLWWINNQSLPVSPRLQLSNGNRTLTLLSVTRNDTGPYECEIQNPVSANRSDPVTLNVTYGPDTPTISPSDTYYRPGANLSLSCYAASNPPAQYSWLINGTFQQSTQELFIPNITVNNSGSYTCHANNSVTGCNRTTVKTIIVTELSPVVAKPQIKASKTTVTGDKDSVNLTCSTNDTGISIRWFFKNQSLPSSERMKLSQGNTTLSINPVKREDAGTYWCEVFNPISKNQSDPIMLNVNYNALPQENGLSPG
Nature of the experiment: SPR multi-cycle, IgG captured. As to the method: As an alternative approach to assess the binding of the 36 antibody combinations and the three control antibodies to CEACAM1, a kinetic analysis was performed on a Biacore T200 (serial no. 1909913) running Biacore T200 Evaluation Software V2.0.1 (Uppsala, Sweden). All experiments were run at 25° C. with HBS-P+ running buffer (pH 7.4) (GE Healthcare, cat. no. BR100671). All kinetic experiments were performed using His-tagged CEACAM1 as the analyte. For all experiments, antibodies were immobilized onto a Series S Protein A sensor chip surface. For kinetic experiments, the amount of immobilized/captured ligand was limited to avoid mass transfer effects at the surface of the chip with the surface ideally having an analyte binding level (Rₘₐₓ) of 50-150 RUs. Using a MW of 45 kDa for the CEACAM1 analyte, 150 kDa for the antibody ligand (estimated value for IgG), 50 RU for Rmax and the stoichiometry (Sm) as 2 due to the ability of each antibody to bind 2 target molecules, a target response level of ˜75 RUs was set for capture of all the sample antibodies.
The signal from the reference channel Fc1 was subtracted from that of Fc2, Fc3 and Fc4 to correct for differences in non-specific binding to a reference surface, a global Rmax parameter was used in the 1-to-1 binding model. The relative Kp compared to […] was calculated by dividing the Kp of the humanized CEACAM antibody variants by that of the chimeric antibody VH0/Vκ0 on the same chip. A summary of the averaged relative Kp obtained for the 12 antibody combinations analyzed using multi cycle kinetics can be found in Table 5.

Experiment [4] concerns the target T4, His-tagged CEACAM1. Briefly: SPR single-cycle, IgG captured. A digest of the protocol:
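Biacore T200 single-cycle kinetics at 25° C in HBS-P+ (pH 7.4): antibodies (purified or HEK EBNA supernatant, 1 μg/ml) captured on Protein A to ~75 RU, His-tagged CEACAM1 analyte at 3.125–50 nM (5-point 2-fold) at 50 μl/min without regeneration. Reference channel Fc1 subtracted.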

B1: CP08H03/Vκ8 S29A (antibody, IgG4, V domains shown)
VH: EVQLLESGGGLVQPGGSLRLSCAASGFIFSSHGMSWVRQAPGKGLEWVATISSGGTYTYYPDSVKGRFTISRDNSKNTLYLQMNSLKAEDTAMYYCARHDFDYFPYWFAHWGQGTLVTVSS
VL: EIVLTQSPATLSLSPGERATLSCRANSAVSYMYWYQQKPGQAPRPWIYLTSNRATGVPARFSGSGSGTDYTLTISSLEPEDFAVYYCQQWSSNPPTFGQGTKLEIK
notes: IgG4 (S241P), kappa; also called CP08_H03/Parent VL; CP08_H03/Parental
The IC50 is the concentration that gives 50% inhibition. Read a low IC50 as higher potency. For B1, the IC50 in the experiment with GST-CEACAM1 is 2.11 nM.

B2: chimeric antibody VH0/Vκ0 (antibody, IgG4, V domains shown)
VH: EVQLVESGGDLVKPGGSLKLACAASGFIFSSHGMSWVRQTPDKRLEWVATISSGGTYTYYPDSVKGRFTISRDNDKNTLYLQMNSLKSEDTAMYYCARHDFDYDAAWFAYWGQGTLVTVSS
VL: QIVLTQSPALMSASPGVKVTMTCSANSSVSYMYWYRQKPRSSPKPWIYLTSNLASGVPARFSGSGSGTSYSLTISSMEAEDAATYYCQQWSSNPPTFGSGTKLEIK
notes: IgG4 (S241P), kappa; also called VH0/Vκ0 (control); Chimeric VH0/Vκ0
By Kd is commonly meant the constant that tells how readily two partners part at equilibrium. B2: the binding result in experiment [1] and in experiment [2] was “no binding” in each case. The “relative KD to VH0/Vκ0” value with His-tagged CEACAM1 [3] and in the experiment with His-tagged CEACAM1 [4] was 1 throughout. The Kd in the experiment with His-tagged CEACAM1 [4] is 42 nM.
